Biological target: T1, SLC4A2 (human, UniProt P04920 1-1241, limits assumed)
T1 sequence (looked up): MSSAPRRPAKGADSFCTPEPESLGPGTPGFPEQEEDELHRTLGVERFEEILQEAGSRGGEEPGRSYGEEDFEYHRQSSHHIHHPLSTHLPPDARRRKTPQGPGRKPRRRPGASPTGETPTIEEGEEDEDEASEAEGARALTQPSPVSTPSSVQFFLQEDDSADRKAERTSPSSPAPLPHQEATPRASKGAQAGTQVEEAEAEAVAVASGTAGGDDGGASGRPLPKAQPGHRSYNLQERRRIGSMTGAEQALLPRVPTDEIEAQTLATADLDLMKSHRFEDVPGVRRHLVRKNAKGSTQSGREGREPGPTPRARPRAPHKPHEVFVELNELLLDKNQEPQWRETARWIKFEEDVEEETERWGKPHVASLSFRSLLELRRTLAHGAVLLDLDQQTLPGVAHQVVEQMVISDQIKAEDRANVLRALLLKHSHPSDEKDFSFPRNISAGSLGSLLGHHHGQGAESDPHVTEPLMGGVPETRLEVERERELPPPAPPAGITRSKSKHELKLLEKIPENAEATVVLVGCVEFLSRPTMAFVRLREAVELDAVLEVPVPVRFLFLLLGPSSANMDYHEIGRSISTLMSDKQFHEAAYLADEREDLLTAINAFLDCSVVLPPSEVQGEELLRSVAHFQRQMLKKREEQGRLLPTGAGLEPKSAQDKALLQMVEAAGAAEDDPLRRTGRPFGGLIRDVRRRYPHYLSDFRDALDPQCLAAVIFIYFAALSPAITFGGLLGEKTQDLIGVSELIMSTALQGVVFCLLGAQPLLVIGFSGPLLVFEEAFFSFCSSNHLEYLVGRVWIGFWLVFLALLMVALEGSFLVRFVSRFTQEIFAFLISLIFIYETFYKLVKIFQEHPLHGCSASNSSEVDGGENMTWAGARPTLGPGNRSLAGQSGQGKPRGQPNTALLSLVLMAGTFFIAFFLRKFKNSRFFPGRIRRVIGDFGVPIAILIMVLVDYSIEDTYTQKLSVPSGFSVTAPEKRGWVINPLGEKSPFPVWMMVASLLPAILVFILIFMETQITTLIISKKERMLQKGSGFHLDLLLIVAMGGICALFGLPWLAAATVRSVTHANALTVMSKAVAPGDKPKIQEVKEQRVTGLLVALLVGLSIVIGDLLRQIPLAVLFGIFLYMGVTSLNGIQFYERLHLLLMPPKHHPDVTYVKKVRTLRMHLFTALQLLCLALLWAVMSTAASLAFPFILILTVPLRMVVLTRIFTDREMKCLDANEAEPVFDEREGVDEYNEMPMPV
Assay: IP/MS, LZTR1 wild type-FLAG, U87
Summary of the method: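 Read-out: spectral counts from LC-MS/MS (Orbitrap Fusion) after MaxQuant identification. Variable modifications were Met oxidation, protein N-terminal acetylation and N/Q deamidation.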

B1: LZTR1-FLAG (other, human, UniProt Q8N653 1-840, looked up)
chain: MAGPGSTGGQIGAAALAGGARSKVAPSVDFDHSCSDSVEYLTLNFGPFETVHRWRRLPPCDEFVGARRSKHTVVAYKDAIYVFGGDNGKTMLNDLLRFDVKDCSWCRAFTTGTPPAPRYHHSAVVYGSSMFVFGGYTGDIYSNSNLKNKNDLFEYKFATGQWTEWKIEGRLPVARSAHGATVYSDKLWIFAGYDGNARLNDMWTIGLQDRELTCWEEVAQSGEIPPSCCNFPVAVCRDKMFVFSGQSGAKITNNLFQFEFKDKTWTRIPTEHLLRGSPPPPQRRYGHTMVAFDRHLYVFGGAADNTLPNELHCYDVDFQTWEVVQPSSDSEVGGAEVPERACASEEVPTLTYEERVGFKKSRDVFGLDFGTTSAKQPTQPASELPSGRLFHAAAVISDAMYIFGGTVDNNIRSGEMYRFQFSCYPKCTLHEDYGRLWESRQFCDVEFVLGEKEECVQGHVAIVTARSRWLRRKITQARERLAQKLEQEAAPVPREAPGVAAGGARPPLLHVAIREAEARPFEVLMQFLYTDKIKYPRKGHVEDVLLIMDVYKLALSFQLCRLEQLCRQYIEASVDLQNVLVVCESAARLQLSQLKEHCLNFVVKESHFNQVIMMKEFERLSSPLIVEIVRRKQQPPPRTPLDQPVDIGTSLIQDMKAYLEGAGAEFCDITLLLDGHPRPAHKAILAARSSYFEAMFRSFMPEDGQVNISIGEMVPSRQAFESMLRYIYYGEVNMPPEDSLYLFAAPYYYGFYNNRLQAYCKQNLEMNVTVQNVLQILEAADKTQALDMKRHCLHIIVHQFTKVSKLPTLRSLSQQLLLDIIDSLASHISDKQCAELGADI
notes: Expressed in HEK 293T, HeLa or U87 cells; used as cell lysate; also called LZTR1 wild type-FLAG; LZTR1 WT; not shown: FLAG tag at the C-terminus
B1: binds.
